According to publication PMC12137173, “Cdc48 plays a crucial role in redox homeostasis through dynamic reshaping of its interactome during early stationary phase” (Redox Biology, 2025):

Biological target: T1, Shp1/Ubx1 (purified) (S. cerevisiae, UniProt P34223 1-423)
T1 construct: Shp1/Ubx1, UBX-family cofactor of Cdc48, S. cerevisiae; also called Shp1/Uxb1; source: purified
T1 sequence (looked up): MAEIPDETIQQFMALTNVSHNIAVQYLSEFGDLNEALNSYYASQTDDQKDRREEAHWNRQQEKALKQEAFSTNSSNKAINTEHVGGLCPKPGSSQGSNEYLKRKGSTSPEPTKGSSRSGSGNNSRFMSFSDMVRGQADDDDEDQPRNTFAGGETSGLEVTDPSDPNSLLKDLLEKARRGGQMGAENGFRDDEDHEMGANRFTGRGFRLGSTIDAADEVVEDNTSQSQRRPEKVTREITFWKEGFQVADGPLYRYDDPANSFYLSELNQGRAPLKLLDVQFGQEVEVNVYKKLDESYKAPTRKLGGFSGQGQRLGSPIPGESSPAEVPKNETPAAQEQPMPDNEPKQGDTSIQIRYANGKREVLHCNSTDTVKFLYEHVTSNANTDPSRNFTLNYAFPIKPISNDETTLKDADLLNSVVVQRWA
Assay: ITC; 25 °C; 220 μM Shp1 injected into 16 μM Cdc48-NTD (WT or C115S); 2 μL injections, 150 s spacing; Malvern MicroCal PEAQ-ITC
Details: both partners purified

- Kd: 14.2 µM
B1: Cdc48-NTD-WT (domain or fragment)
chain: MGEEHKPLLDASGVDPREEDKTATAILRRKKKDNMLLVDDAINDDNSVIAINSNTMDKLELFRGDTVLVKGKKRKDTVLIVLIDDELEDGACRINRVVRNNLRIRLGDLVTIHPCPDIKYATRISVLPIADTIEGITGNLFDVFLKPYFVEAYRPVRKGDHFVVRGGMRQVEFKVVDVEPEEYAVVAQDTIIHWEGEPINREDEENNMN
modifications: Construct limits are not printed. Taken by convention as the equivalent of human p97 N domain 1-199, using the +10 offset shown by Cys209 hVCP = Cys219 Cdc48.
